The target in the assay is T1, recombinant non-phosphorylated full-length TDP-43 (human, UniProt Q13148 1-414).
T1 construct: Bought recombinant protein; also called non-pathological full-length TDP-43; recombinantly expressed full-length TDP-43 (OriGene Technologies)
Put plainly: ELISA, antigen coated. How it is done:
Plates were washed with PBS-Tween 0.05% and blocked 1 h at room temperature with PBS containing 5% Milk (Rapilait, Migros, Zurich, Switzerland) or 2% bovine serum albumin (BSA, Sigma-Aldrich Chemie GmbH, Buchs, Switzerland). Patient sera, B cell conditioned medium, or recombinant antibody preparations were incubated for 2 h at room temperature. Binding of human IgG to the antigen of interest was determined using a HRP-conjugated anti human antibody (anti-IgG-HRP from Jackson ImmunoResearch, West Grove, PA, USA) followed by measurement of the HRP activity using a tetramethylbenzidine substrate solution (TMB, Sigma-Aldrich Chemie GmbH, Buchs, Switzerland).
Background: In an ELISA, binding on a coated surface is turned into a signal by an enzyme label.

T1 sequence (Q13148 whole entry): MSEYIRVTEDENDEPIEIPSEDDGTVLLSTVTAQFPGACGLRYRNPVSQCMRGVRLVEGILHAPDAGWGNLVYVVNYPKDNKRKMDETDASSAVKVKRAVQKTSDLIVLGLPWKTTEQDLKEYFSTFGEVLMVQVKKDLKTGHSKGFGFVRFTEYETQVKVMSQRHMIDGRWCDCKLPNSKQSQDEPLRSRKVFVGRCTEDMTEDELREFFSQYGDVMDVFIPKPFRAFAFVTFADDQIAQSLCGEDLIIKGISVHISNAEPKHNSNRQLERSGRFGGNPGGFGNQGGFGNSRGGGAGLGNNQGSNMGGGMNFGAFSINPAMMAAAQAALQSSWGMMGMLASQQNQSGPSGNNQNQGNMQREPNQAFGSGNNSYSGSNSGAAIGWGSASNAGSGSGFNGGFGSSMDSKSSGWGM

B1: antibody 15D7 (human IgG) (antibody, V domains shown)
VH: EVQLVESGGGLVQPGGSLRLSCSASGFTFGNYAMHWVRQAPGKGLEYVSAMSSNGGSTYYGDSVKGRFTISRDNSKNTLYLQMSSLRAEDTAVYYCVTRGRKAPSLYYFDCWGPGTLVTVSS
VL: not shown
notes: Recombinant human IgG
In the case of B1, the binding result is “no binding”.

The record behind these values is US20240150449A1 (MABYLON, published 2024).
